Patent US20240343810A1 (published 2024)

B1: STIM001_289_LAGA (bispecific antibody, V domains shown, not shown: a dimerising Fc or GST)
VH: QVQVVQSGAEVKKPGASVKVSCKASGYTFSTFGITWVRQAPGQGLEWMGWISAYNGDTNYAQNLQGRVIMTTDTSTSTAYMELRSLRSDDTAVYYCARSSGHYYYYGMDVWGQGTTVTVSS
VL: DIVMTQSPLSLPVTPGEPASISCRSSQSLLHSNEYNYLDWYLQKPGQSPQLLIFLGSNRASGVPDRFSGSGSGTDFTLKITRVEAEDVGIYYCMQSLQTPLTFGGGTKVEIK
B2: STIM001_457_LAGA (bispecific antibody, V domains shown, not shown: a dimerising Fc or GST)
VH: B1 VH
VL: B1 VL
notes: LAGA variant of STIM001_457
B3: STIM003_289_LAGA (bispecific antibody, V domains shown, not shown: a dimerising Fc or GST)
VH: EVQLVESGGGVVRPGGSLRLSCVASGVTFDDYGMSWVRQAPGKGLEWVSGINWNGGDTDYSDSVKGRFTISRDNAKNSLYLQMNSLRAEDTALYYCARDFYGSGSYYHVPFDYWGQGILVTVSS
VL: EIVLTQSPGTLSLSPGERATLSCRASQSVSRSYLAWYQQKRGQAPRLLIYGASSRATGIPDRFSGDGSGTDFTLSISRLEPEDFAVYYCHQYDMSPFTFGPGTKVDIK
notes: LAGA variant of STIM003_289
B4: STIM003_457_LAGA (bispecific antibody, V domains shown, not shown: a dimerising Fc or GST)
VH: B3 VH
VL: B3 VL
notes: LAGA variant of STIM003_457

These binders were tested against T1, Biotinylated human ICOS protein (human, UniProt Q9Y6W8 21-140, limits assumed, biotinylated (sites not given)) (assay: SPR ProteOn avidity format, biotinylated human ICOS on NLC chip; calculated on-rate).
T1 construct: Captured on the NLC chip in the avidity SPR
T1 sequence: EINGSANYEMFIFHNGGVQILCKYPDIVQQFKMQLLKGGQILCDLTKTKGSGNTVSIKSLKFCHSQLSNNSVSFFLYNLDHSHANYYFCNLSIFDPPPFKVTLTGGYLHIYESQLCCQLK
Protocol: (§1) Biotinylated human ICOS protein diluted at 7.5 μg/mL in running buffer (1× HBS-EP+ Buffer Technova, cat. No. H8022) was captured on a NLC sensor chip (Bio-Rad, cat No 1765021). The surface was then blocked using biocytin (Sigma Aldrich, cat No B1758) at 1 mg/mL.
(§2) The assay was carried out at 25° C.
The buffer injection (i.e. 0 nM) was used to double reference the sensorgrams. […]

| Binder | kon [M⁻¹ s⁻¹] |
| --- | --- |
| B1 | 13900 |
| B2 | 31300 |
| B3 | 477000 |
| B4 | 284000 |

These binders were tested against T1, Biotinylated human ICOS protein (assay: SPR ProteOn avidity format, biotinylated human ICOS on NLC chip, antibody analyte, 25 C).
Protocol: as §1, §2
(§3) The buffer injection (i.e. 0 nM) was used to double reference the sensorgrams. The analysis was carried out using the equilibrium model inherent to the ProteOn's analysis software for each mAb² construct.

| Binder | koff [s⁻¹] |
| --- | --- |
| B1 | 0.000354 |
| B2 | 0.000332 |
| B3 | 0.000278 |
| B4 | 0.000232 |

The binders below were run against T1, Biotinylated human ICOS protein (assay: SPR ProteOn avidity format, biotinylated human ICOS on NLC chip, antibody analyte; apparent KD from equilibrium, 25 C).
Protocol: as §1, §2, §3

| Binder | Kd [nM] |
| --- | --- |
| B1 | 25.4 |
| B2 | 10.6 |
| B3 | 0.6 |
| B4 | 0.8 |
